Like-named read-outs stand apart in the source and are kept apart here.
Experiments:
[1] = target: proEGF on the surface of NCI-H292 cell membranes (human) (UniProt P01133); test: flow cytometry on NCI-H292 cells, background staining with normal mouse IgG1
[2] = target: proEGF on the surface of NCI-H292 cell membranes (human) (UniProt P01133); test: as above; remark: listed apart in the source

UniProt P01133, sequence (P01133 23-1207): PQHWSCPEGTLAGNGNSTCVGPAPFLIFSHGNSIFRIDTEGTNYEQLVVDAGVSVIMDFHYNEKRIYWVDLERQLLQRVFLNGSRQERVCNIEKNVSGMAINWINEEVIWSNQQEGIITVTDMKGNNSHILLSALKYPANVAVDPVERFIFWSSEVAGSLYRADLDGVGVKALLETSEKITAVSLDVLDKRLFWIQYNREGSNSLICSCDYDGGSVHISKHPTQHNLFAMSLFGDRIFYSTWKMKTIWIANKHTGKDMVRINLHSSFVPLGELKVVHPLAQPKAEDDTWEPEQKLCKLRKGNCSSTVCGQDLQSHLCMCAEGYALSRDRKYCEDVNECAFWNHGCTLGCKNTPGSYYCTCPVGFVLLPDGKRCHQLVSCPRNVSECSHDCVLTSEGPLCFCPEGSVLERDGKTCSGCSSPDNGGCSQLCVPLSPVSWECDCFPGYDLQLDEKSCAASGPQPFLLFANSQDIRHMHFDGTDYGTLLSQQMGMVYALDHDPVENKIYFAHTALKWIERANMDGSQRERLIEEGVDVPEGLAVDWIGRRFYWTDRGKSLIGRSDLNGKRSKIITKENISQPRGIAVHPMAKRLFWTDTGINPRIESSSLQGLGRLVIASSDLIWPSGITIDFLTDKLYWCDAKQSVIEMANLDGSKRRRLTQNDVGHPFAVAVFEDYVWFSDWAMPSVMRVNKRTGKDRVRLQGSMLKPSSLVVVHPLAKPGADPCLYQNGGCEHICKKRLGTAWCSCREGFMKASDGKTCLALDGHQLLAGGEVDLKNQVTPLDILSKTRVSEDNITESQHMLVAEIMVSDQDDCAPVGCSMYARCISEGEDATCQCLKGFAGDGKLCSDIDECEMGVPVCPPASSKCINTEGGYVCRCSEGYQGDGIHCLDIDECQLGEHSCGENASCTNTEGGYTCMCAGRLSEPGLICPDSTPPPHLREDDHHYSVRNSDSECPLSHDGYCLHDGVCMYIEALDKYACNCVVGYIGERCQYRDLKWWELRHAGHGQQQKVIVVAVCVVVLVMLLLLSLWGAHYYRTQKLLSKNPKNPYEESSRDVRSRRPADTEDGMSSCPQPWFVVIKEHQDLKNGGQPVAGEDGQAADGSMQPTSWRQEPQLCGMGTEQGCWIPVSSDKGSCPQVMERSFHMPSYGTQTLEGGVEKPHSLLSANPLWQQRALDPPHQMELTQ

average fluorescence intensity [1]: 4.62 | average fluorescence intensity [2]: 8.44
Substance: normal mouse IgG1 (produced by R&D Corp.) (antibody)

Reference: patent EP1314779B1
